From patent publication US20240117038A1 (Ablynx, published 2024)

T1: cynomolgus CX3CR1 (cynomolgus monkey (Macaca fascicularis), UniProt P49238 1-355 (human entry))
T1 construct: Overexpressed on CHO K1 cells; also called cyno CX3CR1; cyCX3CR1
T1 chain: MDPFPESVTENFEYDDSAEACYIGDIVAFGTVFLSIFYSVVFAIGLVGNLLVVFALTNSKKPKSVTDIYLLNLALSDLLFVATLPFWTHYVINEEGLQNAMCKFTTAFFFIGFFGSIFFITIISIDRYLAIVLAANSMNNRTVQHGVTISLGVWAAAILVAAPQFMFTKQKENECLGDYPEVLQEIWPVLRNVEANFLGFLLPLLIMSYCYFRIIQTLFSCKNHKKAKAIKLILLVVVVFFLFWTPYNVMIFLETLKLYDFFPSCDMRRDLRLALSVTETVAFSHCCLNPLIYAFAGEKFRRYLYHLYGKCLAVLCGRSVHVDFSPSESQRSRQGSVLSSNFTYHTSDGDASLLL

T2: human CX3CR1 (human, UniProt P49238 1-355)
T2 construct: Overexpressed on CHO K1, Ba/F3 or HEK293T cells; also called huCX3CR1; hCX3CR1
T2 sequence: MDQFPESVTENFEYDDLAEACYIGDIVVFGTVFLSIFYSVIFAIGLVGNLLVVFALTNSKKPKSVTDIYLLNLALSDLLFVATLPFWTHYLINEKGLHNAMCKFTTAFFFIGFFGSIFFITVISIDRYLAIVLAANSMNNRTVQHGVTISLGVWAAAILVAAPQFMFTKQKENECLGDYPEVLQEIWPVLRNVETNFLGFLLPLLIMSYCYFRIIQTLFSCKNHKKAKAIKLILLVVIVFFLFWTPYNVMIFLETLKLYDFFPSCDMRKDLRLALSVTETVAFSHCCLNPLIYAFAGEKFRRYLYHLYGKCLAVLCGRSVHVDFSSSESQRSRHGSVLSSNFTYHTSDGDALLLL


Experiments:
cynomolgus CX3CR1 [1] = biological target: T1, cynomolgus CX3CR1; experiment: competition flow cytometry vs soluble huCX3CL1-AF647 on CHO K1 cyCX3CR1 cells, 30 uM HSA
cynomolgus CX3CR1 [2] = biological target: T1, cynomolgus CX3CR1; experiment: flow cytometry on CHO K1 cyCX3CR1 cells, 30 uM HSA
Method: (§1) CHO cells overexpressing human or cynomolgus CX3CR1 were generated using techniques known in the art. Cells were harvested and resuspended in assay buffer (PBS, 2% FBS, 0.05% NaN3) and seeded separately in 384-well Bio-One V-bottom plates (Greiner, Cat. No. 781280), with a total of 2E04 cells seeded per well. After washing, serial dilutions of multivalent ISVD construct (starting from 250 nM, 3-fold dilution, 11 points, diluted in assay buffer), were added and incubated for 4 hours at 4° C. Binding was performed in the presence of 30 uM HSA (Sigma-Aldrich, Cat. No. A8763). Plates were then washed 3 times and cells were incubated with an anti-VHH mouse antibody (3300-fold diluted in assay buffer) for 30 minutes at 4′° C. […] Plates were finally washed 3 times and cells were resuspended in PI (Miltenyi Biotec, Cat. No. 130-093-233, 1000-fold diluted in assay buffer). Cell suspensions were analyzed with iQue Screener PLUS (Intellicyt). EC50s were estimated by dose response modelling. Curves were fit using 4 parameter logistic regression in GraphPad (GraphPad Software Inc.). A purified anti-human CX3CR1 antibody [K0124E1] (BioLegend, Cat. No. 355701/355702) was used as positive control to detect CX3CR1 expression on the cell surface.

human CX3CR1 [3] = biological target: T2, human CX3CR1; experiment: competition flow cytometry vs soluble huCX3CL1-AF647 on CHO K1 huCX3CR1 cells, 30 uM HSA
human CX3CR1 [4] = biological target: T2, human CX3CR1; experiment: flow cytometry on CHO K1 huCX3CR1 cells, 30 uM HSA
Method: as §1

cynomolgus CX3CR1 [5] = biological target: T1, cynomolgus CX3CR1; experiment: competition flow cytometry vs huCX3CL1-AF647 (2E-10 M) on CHO K1 cyno CX3CR1 cells, 30 uM HSA
Method: (§2) CHO cells overexpressing human or cyno CX3CR1 were generated using techniques known in the art. Cells were harvested and resuspended in assay buffer (PBS, 2% FBS, 0.05% NaN3). The cells were seeded in 384-well Bio-One V-bottom plates (Greiner, Cat. No. 781280), with a total of 2E04 cells seeded per well. After washing, ISVD proteins (starting from 250 nM, 3-fold dilution, 11 points, in assay buffer) were premixed with 30 μM HSA (Sigma-Aldrich, Cat. No. A8763) and human CX3CL1 labelled with AF647 (R&D Systems, Cat. No. 365-FR; labelled in house) at a final concentration of 2E-10 M (˜EC30) and added to the cells for 4 hours at 4° C. Plates were washed 3 times and cells were resuspended in PI (Miltenyi Biotec, Cat. No. 130-093-233, 1000-fold diluted in assay buffer). Cell suspensions were analysed with iQue Screener PLUS or iQue 3(Intellicyt). The IC50s were estimated by dose response modelling. Curves were fit using 4 parameter logistic regression in GraphPad (GraphPad Software Inc.).

human CX3CR1 [6] = biological target: T2, human CX3CR1; experiment: competition flow cytometry vs huCX3CL1-AF647 (2E-10 M) on CHO K1 human CX3CR1 cells, 30 uM HSA
Method: as §2

| Binder | % inhibition (cynomolgus CX3CR1 [1]) [%] | IC50 (cynomolgus CX3CR1 [1]) [nM] | EC50 (cynomolgus CX3CR1 [2]) [nM] | top (cynomolgus CX3CR1 [2]) | % inhibition (human CX3CR1 [3]) [%] | IC50 (human CX3CR1 [3]) [nM] | EC50 (human CX3CR1 [4]) [nM] | top (human CX3CR1 [4]) | IC50 (cynomolgus CX3CR1 [5]) [nM] | IC50 (human CX3CR1 [6]) [nM] |
| --- | --- | --- | --- | --- | --- | --- | --- | --- | --- | --- |
| A041600026 (VHH, Trivalent ISVD construct; also called 66B02_SO (E1D)-20GS-ALB23002-20GS-66B02_SO-A) DVQLVESGGGSVQPGGSLRLSCAASGSIFSSTAMAWYRQAPGKRRDLVAAINTVGVTKYADSVKGRFTISRDNAKNTVYLQMNSLRPEDTALYYCTSDPRRGWDTRYWGQGTLVTVSSGGGGSGGGGSGGGGSGGGGSEVQLVESGGGVVQPGGSLRLSCAASGFTFRSFGMSWVRQAPGKGPEWVSSISGSGSDTLYADSVKGRFTISRDNSKNTLYLQMNSLRPEDTALYYCTIGGSLSRSSQGTLVTVSSGGGGSGGGGSGGGGSGGGGSEVQLVESGGGSVQPGGSLRLSCAASGSIFSSTAMAWYRQAPGKRRDLVAAINTVGVTKYADSVKGRFTISRDNAKNTVYLQMNSLRPEDTALYYCTSDPRRGWDTRYWGQGTLVTVSSA | 104 | 1.2 | 0.25 | 290000 | 102 | 1.1 | 0.29 | 35600 |  |  |
| 66B02_SO (VHH, Monovalent anti-CX3CR1 ISVD; The oligomerization and Tagg assays used a 3xFLAG-His6 tagged form made in E. coli) VHH: EVQLVESGGGSVQPGGSLRLSCAASGSIFSSTAMAWYRQAPGKRRDLVAAINTVGVTKYADSVKGRFTISRDNAKNTVYLQMNSLRPEDTALYYCTSDPRRGWDTRYWGQGTLVTVSS |  |  |  |  |  |  |  |  | 2.9 | 0.48 |
| 54A12_SO (VHH, Monovalent anti-CX3CR1 ISVD; The oligomerization and Tagg assays used a 3xFLAG-His6 tagged form made in E. coli) VHH: EVQLVESGGGSVQPGGSLRLSCAASGSIFSSTAMAWYRQAPGKQRDLVAVISTVGITKYADSVKGRFTISRDNAKNTVYLQMNSLRPEDTALYYCTSDARRGWDTRYWGQGTLVTVSS |  |  |  |  |  |  |  |  | 6 | 0.89 |
| A041600010 (VHH, Trivalent ISVD construct (two anti-CX3CR1 ISVDs, one anti-albumin ISVD); also called 66B02_SO (E1D)-9GS-ALB23002-9GS-66B02_SO-A) DVQLVESGGGSVQPGGSLRLSCAASGSIFSSTAMAWYRQAPGKRRDLVAAINTVGVTKYADSVKGRFTISRDNAKNTVYLQMNSLRPEDTALYYCTSDPRRGWDTRYWGQGTLVTVSSGGGGSGGGSEVQLVESGGGVVQPGGSLRLSCAASGFTFRSFGMSWVRQAPGKGPEWVSSISGSGSDTLYADSVKGRFTISRDNSKNTLYLQMNSLRPEDTALYYCTIGGSLSRSSQGTLVTVSSGGGGSGGGSEVQLVESGGGSVQPGGSLRLSCAASGSIFSSTAMAWYRQAPGKRRDLVAAINTVGVTKYADSVKGRFTISRDNAKNTVYLQMNSLRPEDTALYYCTSDPRRGWDTRYWGQGTLVTVSSA | 113 | 2.4 | 0.46 | 214000 | 94 | 3.8 | 0.41 | 22800 |  |  |
| A041600031 (VHH, Trivalent ISVD construct (two anti-CX3CR1 ISVDs, one anti-albumin ISVD), C-terminal alanine included in the entry; also called 66B02_SO (E1D)-9GS-ALB23002-9GS-54A12_SO-A) DVQLVESGGGSVQPGGSLRLSCAASGSIFSSTAMAWYRQAPGKRRDLVAAINTVGVTKYADSVKGRFTISRDNAKNTVYLQMNSLRPEDTALYYCTSDPRRGWDTRYWGQGTLVTVSSGGGGSGGGSEVQLVESGGGVVQPGGSLRLSCAASGFTFRSFGMSWVRQAPGKGPEWVSSISGSGSDTLYADSVKGRFTISRDNSKNTLYLQMNSLRPEDTALYYCTIGGSLSRSSQGTLVTVSSGGGGSGGGSEVQLVESGGGSVQPGGSLRLSCAASGSIFSSTAMAWYRQAPGKQRDLVAVISTVGITKYADSVKGRFTISRDNAKNTVYLQMNSLRPEDTALYYCTSDARRGWDTRYWGQGTLVTVSSA | 105 | 1.2 | 0.32 | 300000 | 96 | 2.1 | 0.3 | 31300 |  |  |
| A041600042 (VHH, Trivalent ISVD construct (two anti-CX3CR1 ISVDs, one anti-albumin ISVD), C-terminal alanine included in the entry; also called 66B02_SO (E1D)-20GS-66B02_SO-20GS-ALB23002-A) DVQLVESGGGSVQPGGSLRLSCAASGSIFSSTAMAWYRQAPGKRRDLVAAINTVGVTKYADSVKGRFTISRDNAKNTVYLQMNSLRPEDTALYYCTSDPRRGWDTRYWGQGTLVTVSSGGGGSGGGGSGGGGSGGGGSEVQLVESGGGSVQPGGSLRLSCAASGSIFSSTAMAWYRQAPGKRRDLVAAINTVGVTKYADSVKGRFTISRDNAKNTVYLQMNSLRPEDTALYYCTSDPRRGWDTRYWGQGTLVTVSSGGGGSGGGGSGGGGSGGGGSEVQLVESGGGVVQPGGSLRLSCAASGFTFRSFGMSWVRQAPGKGPEWVSSISGSGSDTLYADSVKGRFTISRDNSKNTLYLQMNSLRPEDTALYYCTIGGSLSRSSQGTLVTVSSA | 104 | 0.67 | 0.12 | 373000 | 95 | 1.4 | 0.13 | 40000 |  |  |
| A041600011 (VHH, Trivalent ISVD construct (two anti-CX3CR1 ISVDs, one anti-albumin ISVD), C-terminal alanine included in the entry; also called 66B02_SO (E1D)-9GS-66B02_SO-9GS-ALB23002-A) DVQLVESGGGSVQPGGSLRLSCAASGSIFSSTAMAWYRQAPGKRRDLVAAINTVGVTKYADSVKGRFTISRDNAKNTVYLQMNSLRPEDTALYYCTSDPRRGWDTRYWGQGTLVTVSSGGGGSGGGSEVQLVESGGGSVQPGGSLRLSCAASGSIFSSTAMAWYRQAPGKRRDLVAAINTVGVTKYADSVKGRFTISRDNAKNTVYLQMNSLRPEDTALYYCTSDPRRGWDTRYWGQGTLVTVSSGGGGSGGGSEVQLVESGGGVVQPGGSLRLSCAASGFTFRSFGMSWVRQAPGKGPEWVSSISGSGSDTLYADSVKGRFTISRDNSKNTLYLQMNSLRPEDTALYYCTIGGSLSRSSQGTLVTVSSA | 111 | 1.2 | 0.11 | 331000 | 94 | 0.66 | 0.079 | 44200 |  |  |
| A041600040 (VHH, Trivalent ISVD construct (two anti-CX3CR1 ISVDs, one anti-albumin ISVD), C-terminal alanine included in the entry; also called 66B02_SO (E1D)-9GS-54A12_SO-9GS-ALB23002-A) DVQLVESGGGSVQPGGSLRLSCAASGSIFSSTAMAWYRQAPGKRRDLVAAINTVGVTKYADSVKGRFTISRDNAKNTVYLQMNSLRPEDTALYYCTSDPRRGWDTRYWGQGTLVTVSSGGGGSGGGSEVQLVESGGGSVQPGGSLRLSCAASGSIFSSTAMAWYRQAPGKQRDLVAVISTVGITKYADSVKGRFTISRDNAKNTVYLQMNSLRPEDTALYYCTSDARRGWDTRYWGQGTLVTVSSGGGGSGGGSEVQLVESGGGVVQPGGSLRLSCAASGFTFRSFGMSWVRQAPGKGPEWVSSISGSGSDTLYADSVKGRFTISRDNSKNTLYLQMNSLRPEDTALYYCTIGGSLSRSSQGTLVTVSSA | 117 | 0.62 | 0.14 | 363000 | 101 | 0.99 | 0.1 | 42200 |  |  |
